Experimental data from patent publication US7037663B2, “Human zona pellucida protein 3 and uses thereof” (Eastern Virginia Medical School, priority 1998, dated 2006).
Values joined by “and” are separate entries in the source; they are usually repeats but may differ in a detail not shown here. Equal entries are not always repeated. Where two headings read alike, the source gives them in different places.

Tests used:
[1] = test system: sperm-zona pellucida binding; settings: Dong et al 2000; cited from earlier work
human sperm = test: Acrosome reaction of live sperm by FITC-PSA, second series; format: cell-based
Method: Determination of the acrosome reaction—The proportion of live acrosome-reacted spermatozoa incubated under capacitating conditions was determined with the fluorescent probe fluorescein isothiocyanate-labeled Pisum Sativum Agglutinin (FITC-PSA, Sigma) after staining with a supravital stain (Hoechst 33258, Sigma) following established techniques (12,13). At least 200 sperm per sample were evaluated in duplicate at 600× magnification using an epifluorescence microscope equipped with phase-contrast optics (Optiphot; Nikon, Melville, N.Y.). Slides were coded and read in a blind fashion.
A calcium ionophore agent (A23187, Sigma) tested at 5 μM and human acid solubilized zona pellucida tested at a final concentration of 4 zona/10 μl were used as positive controls (20). In further experiments, the acrosomal status was assessed by transmission electron microscopy. Spermatozoa were fixed by mixing sperm suspensions with equal volumes of 2% (v/v) glutaraldehyde (in 3 mM CaCl2 and 0.1 M sodium cacodylate); thereafter, samples were dehydrated twice and prepared for thin sectioning using previously published procedures. Ultrastructural examination was performed with a transmission electron microscope (Jeol JEM-1200 EX II, Peabody, Mass.).
Experiment 2: Characterization of the acrosome reaction inducing activity of the rhZP3 in dose- and sperm capacitation-dependency studies—Motile sperm fractions from 29 ejaculates of 11 different donors were incubated under capacitating conditions for 3 hours and assayed for acrosome reaction using FITC-PSA. Following swim-up, sperm aliquots were pre-incubated for 30 minutes with rhZP3 (30 ng/ml), A23187 (positive control), culture medium from non-transfected PA-cells (NT) or sperm culture medium (negative controls). This was the initially selected dose of rhZP3 to be tested as it had proven to effect significant inhibition of sperm-zona binding in the HZA.
The dose-dependent effect of rhZP3 on acrosome reaction was examined in the swim-up fractions obtained from four different donors. The fractions were capacitated for 3 hours and exposed for 30 min to rhZP3 at final concentrations of 0, 7.5, 15, 30, 60, 120, 240, 480, 960 and 1920 ng/ml. The capacitation-dependency of the acrosome reaction-inducing activity of rhZP3 was assessed in the swim-up fractions of four ejaculates from four different donors. Capacitation times included: 0 (immediately post-swim-up), 1, 4, 8, 12 and 24 hours. After the capacitation period, rhZP3 was added to the sperm suspension at a final concentration of 30 ng/ml.
In another set of experiments, three different ejaculates were used to compare the effects of the rhZP3 (tested at 500 ng/ml) with those of solubilized zonae pellucidae and the calcium ionophore. Further, the induction of the acrosome reaction was assessed in parallel with FITC-PSA and transmission electron microscopy. The goal of these studies was to compare the morphological features of the acrosome reaction between agonists and also between the agonist-induced and basal exocytosis rates.

[2] = test system: sperm-zona pellucida binding; test: Competitive hemizona assay (HZA), second series; format: cell-based, human
Method: Measurement of sperm-zona pellucida binding-Salt-stored, immature (prophase I) human oocytes were used in the experiments. Oocytes were desalted and microbisected into matching halves (hemizonae) using a micromanipulator (Narishige, Tokyo, Japan) following techniques published elsewhere (10, 11, 19). Control and test sperm droplets (100 μl each of a final dilution of 0.5×10^6 motile sperm/ml 1 hour post-swim-up) were incubated separately under heavy mineral oil (Sigma) with a hemizona from the same matching pair for 4 hours at 37° C. in 5% CO2 in humidified air. After the co-incubation period, the hemizonae were washed to remove loosely attached sperm using a finely drawn glass pipette, and the sperm tightly bound to the outer zona surface were counted under phase microscopy (×200). The hemizona assay index (HZI) was calculated as follows: # of sperm bound for test sample/# of sperm bound for control sample×100. An HZI of 100 indicates no inhibition whereas an HZI of 0 reflects complete inhibition of binding.
Swim up sperm were incubated with rhZP3 (test, at a final concentration of 0, 10, 30, 100, 250, 500 or 2,000 ng/ml of protein) or in culture medium (control) for 30 min under identical conditions. After 30 min, a hemizona was added to the test sperm droplet whereas the matching hemizona from the same pair was added to the control sperm droplet. Three pairs of matching hemizonae were tested per rhZP3 concentration per semen sample in a total of three ejaculates from different donors.
Additional competitive HZAs were performed where the test sperm droplet (rhZP3) was assessed against control sperm droplets of culture medium from non-transfected PA-1 cells (NT). Also, competitive HZAs were carried out where the test sperm droplet (culture medium from non-transfected PA-1 cells, NT) was assayed against sperm culture medium. Three pairs of matching hemizonae were tested per dose per experiment in a total of three different ejaculates. These studies were carried out in order to examine the specificity of the effect of the rhZP3.

[3] = Isoelectric focusing electrophoresis; format: physicochemical; settings: ampholytes pH 3-10 and pH 4-8
Method: For further biochemical analysis, isoelectric focusing electrophoresis was performed. Approximately five microgram of recombinant ZP3 was loaded into an isoelectrophoresis tube with ampholytes (pH 3-10) in a wide range, and ampholytes (pH 4-8) in a narrow range. The same amount protein sample isolated from the PA-1 cells without transfected with hZP3 cDNA was used as a control.

[4] = Aggregation of purified glycoprotein on freezing; format: physicochemical; settings: freezing the purified product
Description: In the zona pellucida, ZP3 associates with ZP2 and ZP1 to form a network structure (Wassarman, 1988). This network structure prevents aggregation of these glycoproteins. However, in solution these glycoproteins tend to aggregate together. This phenomenon has been observed in several recombinant glycoproteins, including ZP3 (Champan and Barratt, 1997). In purifying rhZP3, we have avoided this problem by obtaining a highly purified product, and testing its biological activities within a week-period while maintaining the protein at 4° C. […] This problem becomes worse as larger amounts of the glycoprotein are trying to be produced. Different strategies are being looked into in order to produce and purify large amounts of biologically active rhZP3 in our laboratory.

[5] = in the range of 500-2,000 ng/ml

concentration range of highest (maximal) inhibition of binding [2]: 500 to 2000 ng/mL
minimally effective dose, inhibition of binding under HZA conditions ([2]; 30 min pre-incubation): 30 ng/mL
highest inhibition of binding [2, 5]: approximately 70%
concentration range of highest (maximal) inhibition of binding ([2]; listed as Recombinant hZP3): 500-2,000 ng/ml
HZI (Hemizona index) ([2]; test reagent 30 ng/mL versus 30 ng/mL NT): 44.5 ± 3.6
HZI (Hemizona index) ([2]; test reagent 30 ng/mL versus Ham's F-10/0.5% HSA): 43.6 ± 3.3
HZI (Hemizona index) ([2]; test reagent 500 ng/mL versus 500 ng/mL NT): 41.8 ± 1.9
HZI (Hemizona index) ([2]; test reagent 500 ng/mL versus Ham's F-10-0.5% HSA): 38.0 ± 2.7
B1: rhZP3: recombinant human zona pellucida protein 3 with six-histidine tail, expressed in human ovarian PA-1 cells; secreted glycoprotein of approximately 65 Kd (protein)
chain: QPLWLLQGGASHPETSVQPVLVECQEATLMVMVSKDLFGTGKLIRAADLTLGPEACEPLVSMDTEDVVRFEVGLHECGNSMQVTDDALVYSTFLLHDPRPVGNLSIVRTNRAEIPIECRYPRQGNVSSQAILPTWLPFRTTVFSEEKLTFSLRLMEENWNAEKRSPTFHLGDAAHLQAEIHTGSHVPLRLFVDHCVATPTPDQNASPYHTIVDFHGCLVDGLTDASSAFKVPRPGPDTLQFTVDVFHFANDSRNMIYITCHLKVTLAEQDPDELNKACSFSKPSNSWFPVEGSADICQCCNKGDCGTPSHSRRQPHVMSQWSRSASRNHHHHHH
range of maximal effect, ligand activity [1]: 30-1,000 ng/ml
concentration of highest acrosome reaction-inducing activity (human sperm): 0.5 to 2 µg/mL
concentration range of highest stimulation (maximal effects) of acrosome reaction (human sperm): 500-2,000 ng/ml
potency relative to CHO cell product (human sperm; 0.5-2 μg/ml versus 15-20 μg/ml): at least 10 times
minimally effective dose, induction of the acrosome reaction (human sperm; 3 h capacitation, 30 min exposure): 30 ng/mL
highest stimulation of acrosome reaction, increase from baseline conditions (human sperm; [5]): approximately 210%
capacitation time of maximal stimulation of acrosome reaction (human sperm; rhZP3 30 ng/ml): 8 to 10 h
live, acrosome reacted sperm (human sperm; rhZP3 30 ng/ml, A23187 5 μM, 3 h capacitation, 30 min exposure): 19±4.1%
induction of the acrosome reaction (human sperm; rhZP3 500 ng/ml, solubilized zona 4 zona/10 μl, A23187 5 μM): 28.2±5.6%
isoelectric point (PI) [3]: 4.60±0.05 and ~5.60
isoelectric point (PI) ([3]; listed as recombinant human ZP3): 4.6±0.05
aggregation on freezing (in words) [4]: problems of aggregation of the glycoprotein as we attempted freezing the product
sperm motion parameters, treatment versus control (sperm): not significantly different
